# T1: human PD-L2 (full length, on CHO cells) (human, UniProt Q9BQ51 20-273)
# T1 construct: whole, on cells; also called CHO-PD-L2 cells
# T1 sequence (looked up): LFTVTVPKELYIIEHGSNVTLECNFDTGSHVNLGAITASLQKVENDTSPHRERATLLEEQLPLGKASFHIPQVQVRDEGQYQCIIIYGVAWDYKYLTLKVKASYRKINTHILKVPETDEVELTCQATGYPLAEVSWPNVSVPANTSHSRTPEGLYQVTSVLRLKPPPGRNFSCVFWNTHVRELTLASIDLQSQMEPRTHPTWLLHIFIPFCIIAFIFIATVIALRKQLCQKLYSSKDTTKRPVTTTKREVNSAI
# Tests used:
# [1] = target: T2, human PD-L1 (full length, on cells) (human, UniProt Q9NZQ7 19-290); experiment: flow cytometry on HEK293 cells expressing wild type or alanine-mutant PD-L1
# T2 construct: The entry holds the signal peptide; also called CD274; B7H1
# [2] = target: T1, human PD-L2 (full length, on CHO cells); experiment: flow cytometry on CHO cells expressing human PD-L2
# Procedure: (§1) Cells (3-5×10⁴ cells/well) were incubated in polystyrene 96-well round-bottom plates (Greiner bio-one, cat. no. 650101) with serial dilutions of antibodies (range 0.0001 to 10 μg/mL in 5-fold dilution steps) in 50 μL PBS/0.1% BSA/0.02% azide (staining buffer) at 4° C. for 30 min.
# (§2) After washing twice in staining buffer, cells were incubated in 50 μL secondary antibody at 4° C. for 30 min. As a secondary antibody, R-Phycoerythrin (PE)-conjugated goat-anti-human IgG F(ab′)₂ (Cat. no. 109-116-098, Jackson ImmunoResearch Laboratories, Inc., West Grove, Pa.) diluted 1:500 in staining buffer, was used for all experiments. Next, cells were washed twice in staining buffer, re-suspended in 20 μL staining buffer and analyzed on an iQue screener (Intellicyt Corporation, USA). Binding curves were analyzed using non-linear regression (sigmoidal dose-response with variable slope) using GraphPad Prism V75.04 software (GraphPad Software, San Diego, Calif., USA).
# A PE-conjugated PD-L2 specific antibody (Mylteni, clone MIH18; cat. no. 130-098-651) was used as positive control.
# [3] = target: T2, human PD-L1 (full length, on cells); experiment: flow cytometry on PC3 cells, PE anti-human IgG secondary, MFI (PE)
# Procedure: as §1, §2
# [4] = target: T2, human PD-L1 (full length, on cells); experiment: flow cytometry on HELA cells, PE anti-human IgG secondary, MFI (PE)
# Procedure: as §1, §2
# [5] = target: T2, human PD-L1 (full length, on cells); experiment: flow cytometry on MDA-MB-231 cells, PE anti-human IgG secondary, MFI (PE)
# Procedure: as §1, §2
# [6] = target: T3, cynomolgus monkey PD-L1 (full length, on CHO cells) (cynomolgus monkey (Macaca fascicularis), UniProt G7PSE7 19-290); experiment: flow cytometry on CHO cells transfected with cynomolgus PD-L1, PE anti-human IgG secondary, MFI (PE)
# T3 construct: whole, on cells; also called PDL1 Mf; cynomolgus PD-L1
# Procedure: as §1, §2
# Binding to CHO cells expressing cynomolgus PD-L1 was determined by flow cytometry using a method as described above.
# [7] = target: T2, human PD-L1 (full length, on cells); experiment: flow cytometry on MDA-MB-231 cells, PE anti-human IgG secondary, MFI (PE); remark: listed apart in the source
# Procedure: as §1, §2
# T2 sequence (Q9NZQ7 19-290 limits assumed): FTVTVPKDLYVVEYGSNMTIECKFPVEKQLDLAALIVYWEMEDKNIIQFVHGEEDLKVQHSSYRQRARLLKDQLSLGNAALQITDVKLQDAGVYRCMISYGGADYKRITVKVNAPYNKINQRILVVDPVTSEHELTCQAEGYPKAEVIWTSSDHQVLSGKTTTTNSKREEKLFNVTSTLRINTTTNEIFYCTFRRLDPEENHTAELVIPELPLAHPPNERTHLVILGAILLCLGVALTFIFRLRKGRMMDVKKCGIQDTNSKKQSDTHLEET
# T3 sequence (G7PSE7 entry or part of it): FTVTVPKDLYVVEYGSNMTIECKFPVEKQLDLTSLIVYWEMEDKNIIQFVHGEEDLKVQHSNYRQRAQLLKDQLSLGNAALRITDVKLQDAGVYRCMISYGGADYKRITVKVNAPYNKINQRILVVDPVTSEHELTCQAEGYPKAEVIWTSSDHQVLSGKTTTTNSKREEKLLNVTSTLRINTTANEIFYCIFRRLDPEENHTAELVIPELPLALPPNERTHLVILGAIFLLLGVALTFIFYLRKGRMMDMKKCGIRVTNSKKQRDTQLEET
Binder,binding result [1],binding result [2],EC50 (read off the curve) [3] [µg/mL],EC50 (read off the curve) [4] [µg/mL],EC50 (read off the curve) [5] [µg/mL],EC50 (read off the curve) [6] [µg/mL],EC50 (read off the curve) [7] [µg/mL]
"IgG1-625-FEAR-A488 (antibody, V domains shown, also called control antibody of the alanine scan) VH: HMQLVESGGGVAQPGRSLRLSCAASGFTFSNYGMHWVRQAPGRGLEWLAVMSYDGETKYYADSVKGRFTISRDNSENTLFLQMNSLRAEDTAVYYCAKDTSNGWNYYFYGMDVWGQGTTVTVSS VL: SYELTQPPSVSVSPGQTARITCSGDALPKKFASWYQQKSGQAPVLVIYEDSKRPSGIPERVSGSSSGTMATLTISGAQTEDEADYYCYSTDRSGYHWVFGGGTKLTVL",binds,,,,,,
bsIgG1-huCD3-H1L1-FEAL×547-FEAR (bispecific antibody) heavy 1: not shown VL: not shown heavy 2: EVQLLEPGGGLVQPGGSLRLSCEASGSTFSTYAMSWVRQAPGKGLEWVSGFSGSGGFTFYADSVRGRFTISRDSSKNTLFLQMSSLRAEDTAVYYCAIPARGYNYGSFQHWGQGTLVTVSSASTKGPSVFPLAPSSKSTSGGTAALGCLVKDYFPEPVTVSWNSGALTSGVHTFPAVLQSSGLYSLSSVVTVPSSSLGTQTYICNVNHKPSNTKVDKRVEPKSCDKTHTCPPCPAPEFEGGPSVFLFPPKPKDTLMISRTPEVTCVVVAVSHEDPEVKFNWYVDGVEVHNAKTKPREEQYNSTYRVVSVLTVLHQDWLNGKEYKCKVSNKALPAPIEKTISKAKGQPREPQVYTLPPSREEMTKNQVSLTCLVKGFYPSDIAVEWESNGQPENNYKTTPPVLDSDGSFFLYSRLTVDKSRWQQGNVFSCSVMHEALHNHYTQKSLSLSPGK light: SYVLTQPPSVSVAPGQTARITCGGNNIGSKSVHWYQQKPGQAPVLVVYDDNDRPSGLPERFSGSNSGNTATLTISRVEAGDEADYYCQVWDSSSDHVVFGGGTKLTVLGQPKAAPSVTLFPPSSEELQANKATLVCLISDFYPGAVTVAWKADSSPVKAGVETTTPSKQSNNKYAASSYLSLTPEQWKSHRSYSCQVTHEGSTVEKTVAPTECS,,no binding,~0.03,~0.02,~0.08,~0.06,
bsIgG1-huCD3-H1L1-FEAL×338-FEAR (bispecific antibody) heavy 1: not shown VL: not shown heavy 2: EVQVVESGGGLVQPGGSLRLSCAASGFTFSRFWMSWVRQAPGKGLEWVANIKQDGGEKYYVDSVKGRFTISRDNAKNSLYLQMNSLRGEDTAVYYCARDDNWNGHFDYWGQGTLVTVSSASTKGPSVFPLAPSSKSTSGGTAALGCLVKDYFPEPVTVSWNSGALTSGVHTFPAVLQSSGLYSLSSVVTVPSSSLGTQTYICNVNHKPSNTKVDKRVEPKSCDKTHTCPPCPAPEFEGGPSVFLFPPKPKDTLMISRTPEVTCVVVAVSHEDPEVKFNWYVDGVEVHNAKTKPREEQYNSTYRVVSVLTVLHQDWLNGKEYKCKVSNKALPAPIEKTISKAKGQPREPQVYTLPPSREEMTKNQVSLTCLVKGFYPSDIAVEWESNGQPENNYKTTPPVLDSDGSFFLYSRLTVDKSRWQQGNVFSCSVMHEALHNHYTQKSLSLSPGK light: DIQMTQSPSTLSASVGDRVTITCRASQSISSWLAWYQQKPGKAPNLLIYKASSLESGVPSRFSGSGSGTEFTLTISSLQPDDFATYYCQQYYGSYITFGQGTRLEIKRTVAAPSVFIFPPSDEQLKSGTASVVCLLNNFYPREAKVQWKVDNALQSGNSQESVTEQDSKDSTYSLSSTLTLSKADYEKHKVYACEVTHQGLSSPVTKSFNRGEC,,no binding,~0.03,~0.02,,~0.09,~0.1

# From US20200239579A1 (Genmab, published 2020)
